# T1: human/murine IL-18 chimera in which C-terminal human IL-18 residues 92-193 were replaced by the corresponding … (human; mouse)
# T1 construct: Mature form after caspase-1 cleavage; also called human (37-91)/murine IL-18 chimera; not shown: C-terminal V5 and His tags and any linker to them
# T1 chain: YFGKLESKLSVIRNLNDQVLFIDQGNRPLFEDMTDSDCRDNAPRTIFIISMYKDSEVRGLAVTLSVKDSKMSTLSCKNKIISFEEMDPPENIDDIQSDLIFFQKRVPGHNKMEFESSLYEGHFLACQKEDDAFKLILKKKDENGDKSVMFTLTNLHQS
# T2: human (37-176)/murine (174-192) IL-18 chimera (human; mouse, UniProt Q14116 37-188)
# T2 chain: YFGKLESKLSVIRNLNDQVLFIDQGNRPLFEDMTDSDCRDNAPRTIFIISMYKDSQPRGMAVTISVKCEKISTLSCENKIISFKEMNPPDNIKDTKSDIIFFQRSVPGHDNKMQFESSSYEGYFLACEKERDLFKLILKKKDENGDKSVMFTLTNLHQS
# T3: murine IL-18, mature, with C-terminal V5 and His tags (mouse, UniProt P70380 36-192)
# T3 construct: also called IL-18 mouse
# T3 sequence: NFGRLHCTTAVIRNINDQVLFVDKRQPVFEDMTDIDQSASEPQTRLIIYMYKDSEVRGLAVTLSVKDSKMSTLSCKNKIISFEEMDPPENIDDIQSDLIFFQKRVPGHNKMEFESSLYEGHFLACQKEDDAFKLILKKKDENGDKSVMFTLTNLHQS
# T4: human/murine IL-18 chimera in which C-terminal human IL-18 residues 120-193 were replaced by the … (human; mouse)
# T4 construct: Mature form after caspase-1 cleavage; also called human (37-119)/murine IL-18 chimera; not shown: C-terminal V5 and His tags and any linker to them
# T4 chain: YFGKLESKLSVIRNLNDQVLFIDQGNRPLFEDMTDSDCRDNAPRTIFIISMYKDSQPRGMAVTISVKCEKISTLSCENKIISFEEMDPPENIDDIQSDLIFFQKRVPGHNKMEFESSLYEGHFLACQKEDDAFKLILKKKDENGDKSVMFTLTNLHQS
# B1: ABT-325, recombinant human immunoglobulin G1 (IgG1) monoclonal antibody specific for human IL-18 (antibody, V domains shown)
# VH: EVQLVQSGTEVKKPGESLKISCKGSGYTVTSYWIGWVRQMPGKGLEWMGFIYPGDSETRYSPTFQGQVTISADKSFNTAFLQWSSLKASDTAMYYCARVGSGWYPYTFDIWGQGTMVTVSS
# VL: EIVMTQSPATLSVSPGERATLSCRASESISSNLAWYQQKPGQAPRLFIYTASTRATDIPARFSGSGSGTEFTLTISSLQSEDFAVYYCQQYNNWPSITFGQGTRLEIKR
# notes: IgG1 kappa
# B2: 125-2H, neutralizing murine immunoglobulin G1 (IgG1) monoclonal antibody specific for human IL-18 (antibody, V domains shown)
# VH: EIQLQQSGPELVKPGASVKVSCKASGYSFTDYFIYWVKQSHGKSLEWIGDIDPYNGDTSYNQKFRDKATLTVDQSSTTAFMHLNSLTSEDSAVYFCARGLRFWGQGTLVTVSA
# VL: DIQMTQSPSSLSASLGERVSLTCRASQDIGSKLYWLQQEPDGTFKRLIYATSSLDSGVPKRFSGSRSGSDYSLTISSLESEDFVDYYCLQYASSPYTFGGGTKLAIKR
# notes: Murine IgG1
# Legend:
# [1] = biological target: T1, human/murine IL-18 chimera in which …; assay: sandwich ELISA, capture by test antibody, detection by anti-tag antibody
# [2] = biological target: T2, human (37-176)/murine (174-192) IL-18 …; assay: as above
# [3] = biological target: T3, murine IL-18, mature, with C-terminal …; assay: as above
# [4] = biological target: T4, human/murine IL-18 chimera in which …; assay: as above
# [5] = biological target: recombinant human IL-18 (KG-1 bioassay) (human, UniProt Q14116 37-193); assay: cell-based or functional assay
# [6] = biological target: natural human IL-18 (whole blood assay) (human, UniProt Q14116 37-193); assay: cell-based or functional assay
# [7] = biological target: T5, mutant human IL-18 (mature form of pro-IL-18-5C→A, cysteines mutated to alanine) (human, UniProt Q14116 37-193); assay: method not stated (Biacore is named later in the paragraph)
# T5 construct: also called Mutant IL-18; pro-IL-18-5C→A after caspase-1 cleavage
# [8] = biological target: T2, human (37-176)/murine (174-192) IL-18 …; assay: sandwich ELISA: tagged IL-18 chimera captured by the test antibody, detected with an anti-tag antibody
Binder,binding result [1],binding result [2],binding result [3],binding result [4],"IC50, human myelomonocytic cell line KG-1 bioassay; IL-18Rα/β-driven IFN-γ production [5]","IC50, whole blood assay; LPS+IL-12-driven IFN-γ production [6]",Kd [7],binding result [8]
B1,no binding,binds,no binding,no binding,0.2 nM,~3 nM,~0.2 nM,–
B2,–,–,–,–,0.2 nM,~3 nM,~0.2 nM,no binding
